{"source": "patent US6358687", "about": "“Methods for monitoring the binding of A1/UP1 to single-stranded nucleic acid sequences, and to measure the effect of this binding on telomere extension and protection” (Telogene Inc.)", "key": {"UP1 (hnRNP A1 fragment) [1]": {"target": "T1, UP1 (hnRNP A1 fragment) (UniProt P49312 P49312:1-196)", "T1 sequence (P49312 1-196, one chain of several)": "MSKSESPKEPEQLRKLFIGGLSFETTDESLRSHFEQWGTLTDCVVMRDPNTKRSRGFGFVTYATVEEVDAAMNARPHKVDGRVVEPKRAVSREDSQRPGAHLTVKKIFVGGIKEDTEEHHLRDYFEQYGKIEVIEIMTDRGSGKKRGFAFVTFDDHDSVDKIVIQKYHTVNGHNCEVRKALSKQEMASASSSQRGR", "experiment": "EMSA; 1-4 uM protein, 0.5 uM TS10", "details": "tags: GST removed by thrombin; label: 5'-32P", "method": "(§1) GST-UP1 (G-UP1) at concentrations of 0, 0.2, 0.5, 1.0, 2.0 and 4.0 µM, or UP1 at concentrations of 0, 1.0, 2.0 and 4.0 µM, were incubated with TS10 (0.5 µM). Complexes were fractionated on 5% non-denaturating polyacrylamide gels. The position of complexes and free TS10 is shown."}, "[2]": {"target": "T2, GST-UP1 (hnRNP A1 fragment) (UniProt P49312 P49312:1-196)", "T2 sequence (P49312 1-196, one chain of several)": "as above", "experiment": "EMSA; 0.2-4.0 uM protein, 0.5 uM TS10; 2.5 mM MgCl2, 75 mM KCl, 30 C", "details": "tags: GST; label: 5'-32P", "method": "as §1"}, "[3]": {"target": "T2, GST-UP1 (hnRNP A1 fragment)", "experiment": "EMSA; 0.25-1.0 uM protein", "details": "tags: GST; label: 5'-32P", "method": "(§2) Gel-shift assays were performed using single-stranded or partially double-stranded duplex substrates. A, the concentrations of GST-UP1 (G-UP1) used for each set of DNA substrate were 0.25, 0.5, 1.0 and 0 µM. Duplex formation was accomplished by incubating an equimolar amount of unlabeled Tb with labeled b' (or unlabeled aT with labeled a'). The partial duplex substrates migrate slightly above the position of labeled Tb and aT. […] B, gel shift assays were accomplished in the presence of an excess of cold oligonucleotides as competitor. Labeled Tb or aT (0.1 µM) was used in combination with cold Tb or aT (0, 0.625, 1.25, 2.5 and 5.0 µM) and G-UP1 (0.3 µM). (Open bar) vertebrate telomeric repeats; (solid bar) nontelomeric DNA. The asterisk (*) indicates which oligonucleotide was ^32P-labeled at its 5' end. Complexes were fractionated on 5% non-denaturating polyacrylamide gels. The position of the free and complexed oligonucleotides is shown."}, "[4]": {"target": "T2, GST-UP1 (hnRNP A1 fragment)", "experiment": "EMSA; legend titled binding to single-stranded telomeric extensions in partial duplex", "details": "tags: GST", "method": "as §2"}, "[5]": {"target": "T2, GST-UP1 (hnRNP A1 fragment)", "experiment": "EMSA; not shown", "details": "tags: GST; label: 5'-32P", "method": "as §2"}, "UP1 (hnRNP A1 fragment) [6]": {"target": "T1, UP1 (hnRNP A1 fragment)", "experiment": "EMSA; not shown", "details": "tags: GST removed by thrombin"}}}
{"binder": "TS10 (ssDNA) DNA: TTAGGGTTAGGGTTAGGGTTAGGGTTAGGGTTAGGGTTAGGGTTAGGGTTAGGGTTAGGG", "values": [{"measurement": "binding result", "setting": "UP1 (hnRNP A1 fragment) [1]", "result": "binds"}, {"measurement": "binding result", "setting": "[2]", "result": "binds"}]}
{"binder": "GGCCTAGTGTCCTGGTAGGGTTAGGGTTAGGGT (ssDNA)", "note": "[aT]", "values": [{"measurement": "binding result", "setting": "[3]", "result": "binds"}]}
{"binder": "aT/a' partial duplex (mixed) DNA 1: GGCCTAGTGTCCTGGTAGGGTTAGGGTTAGGGT DNA 2: CCAGGACACTAGGCC", "values": [{"measurement": "binding result", "setting": "[4]; label: 5'-32P on a', 3' single-stranded telomeric overhang", "result": "binds"}]}
{"binder": "CCAGGACACTAGGCC (ssDNA)", "note": "[a']", "values": [{"measurement": "binding result", "setting": "[5]", "result": "no binding"}]}
{"binder": "TAGGGTTAGGGTTAGGGTGGTCCTGTGATCCGG (ssDNA)", "note": "[Tb]", "values": [{"measurement": "binding result", "setting": "[3]", "result": "binds"}]}
{"binder": "Tb/b' partial duplex (mixed) DNA 1: TAGGGTTAGGGTTAGGGTGGTCCTGTGATCCGG DNA 2: CCGGATCACAGGACC", "values": [{"measurement": "binding result", "setting": "[4]; label: 5'-32P on b', 5' single-stranded telomeric overhang", "result": "binds"}]}
{"binder": "GGGGGTGGGAGCAGGGGAGG (ssDNA)", "note": "[Ne4]", "values": [{"measurement": "binding result", "setting": "UP1 (hnRNP A1 fragment) [6]", "result": "no binding"}]}
{"binder": "CCGGATCACAGGACC (ssDNA)", "note": "[b']", "values": [{"measurement": "binding result", "setting": "[5]", "result": "no binding"}]}
{"binder": "GGTTAGGGTTAGGGTTAG (ssDNA)", "note": "[Tel2]", "values": [{"measurement": "binding result", "setting": "UP1 (hnRNP A1 fragment) [6]", "result": "binds"}]}
